Three substances from PMC4158905 can be followed below.

Experiment [1] has as its target dynein heavy chain (DYNC1H1) (human) (UniProt Q14204). Nature of the experiment: SEC-MALS; purified recombinant dynein complex; single peak of approximately 1.40 MDa against 1.42 MDa expected for a dimeric complex of all six chains. (In general: Size exclusion chromatography separates by hydrodynamic size, large species first.)
Experiment [2] addresses recombinant human cytoplasmic dynein 1 complex (human) (UniProt Q14204).
The target is the same in experiment [3]. Put plainly: single-molecule two-colour co-localisation (TIRF microscopy); roughly equimolar TMR–dynein and Alexa647–dynein mixed, puncta on microtubules scored for both dyes in kymographs, 2.5 mM ATP; done without and with dynactin and BICD2N.

By stoichiometry N is commonly meant the number of molecules, sites or subunits per partner or assembly. In the case of “dynein heavy chain (DYNC1H1), Q14204 1-4646”, the stoichiometry N in experiment [1] was 2. “native dynactin complex from pig brains (from UniProt A0A287B8J2 1-1281; A0A5G2QD80 1-405)”: the proportion of TMR–dynein complexes with unidirectional minus end-directed movement on microtubules, with dynactin and BICD2N at 20 BICD2N dimers: 1 dynein complex: 2 dynactin complexes in experiment [2] worked out at 23%. “recombinant human cytoplasmic dynein 1 complex (from UniProt Q14204 1-4646; O43237-1 1-492; P63172 1-113; Q9NP97-1 1-96; P63167 1-89)”: the percent of dynein puncta that contained both dyes in experiment [3] stood at 6%.
